# From patent US20070207967A1, “Peptide Inhibitors of Matrix Metalloproteinase Activity” (CTT CANCER TARGETING TECHNOLOGIES OY, priority 2004, published 2007)
# Tests used:
# pro-MMP-9 = pro-MMP-9 (Homo sapiens, UniProt P14780); test: Pro-MMP-9 activation in THP-1 cells, zymography; format: cell-based; settings: THP-1, pro-MMP-3 and plasminogen, peptides 200 μM
# Method: Activation of MMP-9. THP-1 cells (40 000/100 μl) or confluent HT1080 cells were incubated for 16 h in the presence or absence of 2.5 μg/ml plasminogen, 0.5 μg/ml pro-MMP-3 (Oncogene Research Products), 40 nM PDBu, and the peptides at a 200 μM concentration unless otherwise indicated. Aliquots of the conditioned media were analyzed by gelatin zymography (9). […] The samples were analyzed by gelatin zymography.
# αM integrin I domain [1] = target: T1, αM integrin I domain (Homo sapiens, UniProt P11215); test: Pro-MMP-9 binding to αM integrin I domain
# T1 sequence (P11215 150-328 limits assumed): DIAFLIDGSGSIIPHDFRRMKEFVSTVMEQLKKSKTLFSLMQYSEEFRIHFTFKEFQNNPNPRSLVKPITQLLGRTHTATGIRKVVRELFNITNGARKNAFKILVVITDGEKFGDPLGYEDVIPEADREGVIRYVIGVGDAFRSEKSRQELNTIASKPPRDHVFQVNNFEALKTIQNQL
# Method: Pro-MMP-9 and gelatin binding to leukocyte αM integrin. Pro-MMP-9 binding to the αM I domain in the presence of peptides was studied as described (12). Gelatin binding to the pro-MMP-^9/αMβ2 integrin complex was studied by immobilizing the integrin αMβ2 (12) or αIIbβ3 as a control (Enzyme Research Laboratories, South Bend, Ind.) (1 μg/well) in TBS/1 mM CaCl2/1 mM MgCl2 followed by saturation of the wells with 1% BSA in PB ST. Pro-MMP-9 (100 ng/well) was incubated for 2 h and the unbound pro-MMP-9 was washed away. Biotinylated gelatin (2.5 μg/ml) was allowed to bind for 30 min at room temperature. Bound gelatin was detected with streptavidin-peroxidase.
# neutrophil recruitment = settings: acute inflammation model in mice; ref (48); cited from earlier work
# leukocytes = settings: ref (12); cited from earlier work
# αM integrin I domain [2] = target: T1, αM integrin I domain; settings: ref (12); cited from earlier work
# [3] = tested on: β5 integrin-transfected CS-1 melanoma cells; test: 125I-C domain binding to cells; format: cell-based, hamster; settings: unlabelled proteins 50 μg/ml, peptides 50 μM
# Method: ^125I-C domain binding to cells. The MMP-9 C domain was labelled with ^125I to a specific activity 0.06 μCi/pmol. The labelled domain retained 40% of the CRV peptide-binding activity as shown by the phage-binding assay. […] After a preincubation of 1.5×10^6 cells in a 200 μl volume on ice for 30 min with the competitors, ^125I-labelled C domain (1×10^6 cpm) was added and incubated for three hours on ice. The cells were transferred to tubes containing 200 μl of dibutyl phthalate/cyclohexane mixture (23:2 vol/vol), centrifuged 7500×g for 10 minutes and snap-frozen (24). The bottom of the tube containing the cells were cut and analyzed with a gamma-counter.
# Chain of pro-MMP-9 (P14780 20-707 limits assumed): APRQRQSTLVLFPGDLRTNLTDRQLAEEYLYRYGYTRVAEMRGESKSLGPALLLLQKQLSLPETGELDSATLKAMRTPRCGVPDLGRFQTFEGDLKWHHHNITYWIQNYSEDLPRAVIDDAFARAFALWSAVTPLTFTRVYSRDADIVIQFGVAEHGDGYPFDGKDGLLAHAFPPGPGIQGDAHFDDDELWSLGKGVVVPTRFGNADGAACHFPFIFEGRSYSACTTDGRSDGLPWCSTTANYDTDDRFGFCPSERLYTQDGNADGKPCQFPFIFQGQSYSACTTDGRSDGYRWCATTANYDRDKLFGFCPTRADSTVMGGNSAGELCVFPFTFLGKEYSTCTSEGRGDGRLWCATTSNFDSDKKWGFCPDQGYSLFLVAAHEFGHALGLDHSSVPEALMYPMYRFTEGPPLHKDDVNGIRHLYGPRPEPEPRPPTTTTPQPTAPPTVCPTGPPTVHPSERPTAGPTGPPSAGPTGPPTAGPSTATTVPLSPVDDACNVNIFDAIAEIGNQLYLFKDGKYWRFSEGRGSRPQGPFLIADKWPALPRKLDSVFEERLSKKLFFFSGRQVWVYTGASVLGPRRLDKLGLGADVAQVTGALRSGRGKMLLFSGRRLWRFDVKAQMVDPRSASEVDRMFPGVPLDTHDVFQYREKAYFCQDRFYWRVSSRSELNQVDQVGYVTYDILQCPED
Substance,Effect on pro-MMP-9 activation (pro-MMP-9),Effect on interaction of MMP-9 with the leukocyte αM integrin I domain (αM integrin I domain [1]),Inhibition of neutrophil recruitment (neutrophil recruitment),Inhibition of migration of leukocytes (leukocytes),Competition with pro-MMP-9 binding to I domain of αM integrin subunit (αM integrin I domain [2]),Competition of 125I-labelled MMP-9 C domain binding to β5 integrin-transfected CS-1 cells [3]
ADGACILWMDDGWCGAAG,augmented,blocked,active in vivo inhibiting neutrophil recruitment,inhibited migration of leukocytes,competed,–
GRGDSP [reference compound],–,–,–,–,–,No competition
